How the values were obtained:
重组人TIGIT蛋白抗原 [1] = target: T1, 重组人TIGIT蛋白抗原 (human, UniProt Q495A1 21-141, limits assumed); experiment: ELISA, TIGIT antigen coated
T1 construct: Made as TIGIT-Fc in 293F, cut with TEV protease and purified; also called TIGIT抗原; 人TIGIT抗原
T1 sequence (looked up): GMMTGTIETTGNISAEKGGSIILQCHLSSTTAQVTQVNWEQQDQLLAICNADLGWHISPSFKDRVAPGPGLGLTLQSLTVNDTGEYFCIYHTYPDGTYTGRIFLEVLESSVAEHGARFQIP

重组人TIGIT蛋白抗原 [2] = target: T1, 重组人TIGIT蛋白抗原; experiment: ELISA, TIGIT antigen coated, HRP anti-human IgG
LAG-3抗原 = target: T2, LAG-3抗原 (UniProt P18627 23-450, limits assumed); experiment: ELISA, antigen coated
T2 sequence (looked up): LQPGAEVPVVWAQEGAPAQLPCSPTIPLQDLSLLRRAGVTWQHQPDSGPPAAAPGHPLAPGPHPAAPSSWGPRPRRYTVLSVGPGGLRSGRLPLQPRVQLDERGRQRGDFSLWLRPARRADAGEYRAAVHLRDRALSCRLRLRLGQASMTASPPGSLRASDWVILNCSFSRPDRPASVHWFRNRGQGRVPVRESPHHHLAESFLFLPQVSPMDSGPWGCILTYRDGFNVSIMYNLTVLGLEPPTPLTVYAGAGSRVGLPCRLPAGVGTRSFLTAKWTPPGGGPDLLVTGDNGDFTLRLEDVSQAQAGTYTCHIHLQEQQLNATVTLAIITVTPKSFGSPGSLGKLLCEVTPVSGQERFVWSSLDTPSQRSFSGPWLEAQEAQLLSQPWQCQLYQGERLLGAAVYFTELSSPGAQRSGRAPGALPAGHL

PD-1抗原 = PD-1抗原 (UniProt Q15116 25-167, limits assumed); experiment: ELISA, antigen coated
PD-L1抗原 = PD-L1抗原 (UniProt Q9NZQ7 19-238, limits assumed); experiment: ELISA, antigen coated
CTLA4抗原 = target: T3, CTLA4抗原 (UniProt P16410 36-161, limits assumed); experiment: ELISA, antigen coated
T3 sequence (looked up): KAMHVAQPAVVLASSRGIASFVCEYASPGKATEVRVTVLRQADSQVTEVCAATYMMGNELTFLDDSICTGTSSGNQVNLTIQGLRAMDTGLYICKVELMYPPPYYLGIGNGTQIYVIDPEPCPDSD

重组人TIGIT蛋白抗原 [3] = target: T1, 重组人TIGIT蛋白抗原; experiment: ELISA, human TIGIT antigen coated

Chain of PD-L1抗原 (Q9NZQ7 19-238 limits assumed): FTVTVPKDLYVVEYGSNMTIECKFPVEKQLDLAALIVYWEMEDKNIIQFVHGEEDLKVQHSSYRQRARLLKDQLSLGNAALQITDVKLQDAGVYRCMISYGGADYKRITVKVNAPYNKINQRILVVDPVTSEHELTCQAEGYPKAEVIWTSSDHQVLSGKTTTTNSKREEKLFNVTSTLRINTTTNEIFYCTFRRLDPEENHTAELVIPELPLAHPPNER
Chain of PD-1抗原 (Q15116 25-167 limits assumed): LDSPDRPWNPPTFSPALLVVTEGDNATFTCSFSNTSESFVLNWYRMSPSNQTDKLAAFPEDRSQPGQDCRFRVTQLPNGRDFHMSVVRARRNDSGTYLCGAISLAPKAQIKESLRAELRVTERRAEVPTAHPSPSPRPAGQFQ

B1: 鼠源抗TIGIT单链抗体mT251 (mT251 scFv-Fc重组蛋白) (scFv, V domains shown)
VH: DVKLKESGPSLVKPSQTLSLTCSVTGDSITSGFWNWIRKFPGNKLEYMGYISYSGSSYYNPSLKSRISITRDTSKNQYYLQLNSVTTEDTATYYCAAGDFGNYGYAMDNWGQGTSVTVSS
VL: DVLMTQSHKFMSTSVGDRVSITCKASQRVTTAVAWYQQKPGQSPKLLIYSASYRYTGVPDRFTGSGSGTDFTFTITSVQPEDLAIYYCQQYYSTPLTFGAGTKLEIK
B1 gave an EC50 (重组人TIGIT蛋白抗原 [1]) of 0.099 µg/mL and an EC50 (重组人TIGIT蛋白抗原 [2]) of 0.125 µg/mL.

B2: 人源化抗体hmT251 (antibody, V domains shown)
VH: DVRLKESGPGLVKPSQTLSLTCTVSGGSITSGFWNWIRKHPGNGLEYIGYISYSGSSYYNPSLKSRVTISRDTSKNQYSLKLSSVTAADTAVYYCAAGDFGNYGYAMDVWGQGTTVTVSS
VL: DVQMTQSPSSLSASVGDRVTITCKASQRVTTAVAWYQQKPGKSPKLLIYSASYRYTGVPDRFTGSGSGTDFTLTISSLQPEDFATYYCQQYYSTPLTFGGGTKVEIK
notes: also called 人源化抗TIGIT抗体hmT251; 人源化单链抗体hmT251
B2: no binding (LAG-3抗原); no binding (PD-1抗原); no binding (PD-L1抗原). The binding result (CTLA4抗原) was “no binding”, the EC50 (重组人TIGIT蛋白抗原 [1]) was 0.0741 µg/mL and the EC50 (重组人TIGIT蛋白抗原 [3]) was 0.155 µg/mL.

— patent CN112794909A (GUANGZHOU EXCELMAB BIOMEDICAL TECH CO LTD, dated 2021)
